{
  "source": "paper PMC11853100",
  "target": "Streptococcus pneumoniae pneumolysin, recombinant (Streptococcus pneumoniae strain R6) (UniProt Q04IN8)",
  "assay": "ITC; chaperone in the syringe, Ply in the sample cell; 20 mM MES, 100 mM NaCl, 1 mM beta-mercaptoethanol, 10% glycerol, pH 6.5, 25 C; independent binding model",
  "data": [
    {"substance": "Streptococcus pneumoniae SlrA (from UniProt Q8DQG5 19-267) (enzyme)", "values": [
      {"measurement": "dH", "value": -35.6, "unit": "kcal/mol"},
      {"measurement": "stoichiometry N", "value": 0.84}
    ]}
  ]
}
